Values of other authors, collected in article PMC3128988.

Molecular target: CD47 (Homo sapiens) (UniProt Q08722)
UniProt Q08722, sequence (Q08722 19-323): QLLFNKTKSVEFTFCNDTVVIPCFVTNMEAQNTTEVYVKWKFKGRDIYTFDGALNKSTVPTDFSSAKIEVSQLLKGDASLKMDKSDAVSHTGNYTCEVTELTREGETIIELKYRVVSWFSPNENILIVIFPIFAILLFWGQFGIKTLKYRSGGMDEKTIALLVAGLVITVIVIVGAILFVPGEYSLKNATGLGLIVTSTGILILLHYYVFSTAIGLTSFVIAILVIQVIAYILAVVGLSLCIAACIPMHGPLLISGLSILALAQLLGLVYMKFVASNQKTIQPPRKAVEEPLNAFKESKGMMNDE

SIRPα (from UniProt P78324)
Kd: 1000 nM
